{
  "source": "patent US20130189255A1",
  "about": "“FUSIONS AND CONJUGATES OF INSULINOTROPIC AGENTS” (GLAXO GROUP LIMITED, priority 2008, published 2013)",
  "test": "Thermal denaturation by differential scanning calorimetry (DSC)",
  "assay_type": "physicochemical",
  "conditions": "1 mg/ml, 20 mM citrate pH6.2, 100 mM NaCl, 180° C./hour, non-2-state model",
  "procedure": "Protein was dialysed overnight into 20 mM citrate pH6.2, 100 mM NaCl, filtered and then prepared at concentration of 1 mg/ml as determined by absorbance at 280 nm. Filtered dialysis buffer was used as a reference for all samples. DSC was performed at a heating rate of 180° C./hour. Before each sample a solution of 1% decon, and then buffer were injected to clean the cells and to provide instrumental baseline. Obtained traces were analysed using Origin 7 Microcal software. The DSC trace obtained from the reference buffer was subtracted from the sample trace. Precise molar concentration of the sample was used for calculations (performed automatically by Origin). Baseline setting for both upper and lower baselines linear regions before/after transition were selected and connected using cubic connect function. The resulting graph is fitted to non-2-state model, generating apparent Tm, and ΔH/ΔHv values.",
  "data": [
    {"substance": "lysozyme", "values": [
      {"measurement": "appTm", "value": 76.2, "unit": "°C"}
    ]}
  ]
}
